Data from US20260232732A1 (FUNDACI INSTITUT DE RECERCA CONTRA LA LEUC MIA JOSEP …, published 2026).
One block for each binder: values may come before it. Where no end group is shown, it is not given here. The star is where a group is joined. Biotin = O=C1N[C@H]2[C@H](CS[C@H]2CCCCC(=O)*)N1

What was measured:
[1] = molecular target: T1, Peptide 4-BSA (SMEDYVNFNF-C conjugated to BSA) (human); assay: ELISA; Ab 0.03125 ug/mL; repII
T1 peptide: SMEDYVNFNFC(BSA)
Procedure: (§1) In brief, plates with each non-conjugated peptide (50 μg/mL) or BSA-conjugated peptide (5 μg/mL) were coated in 0.58M carbonate-bicarbonate buffer pH9.5, 100 μL/well, at 4° C. […] After washing, wells were incubated with the 3, 3′,5,5′-Tetramethylbenzidine (TMB) HRP substrate and reactions were stopped with 2M HCl and OD450 was recorded.

[2] = molecular target: T2, Peptide 2-BSA (GSESTSSMED-C conjugated to BSA) (human); assay: ELISA; Ab 0.03125 ug/mL; repII
T2 peptide: GSESTSSMEDC(BSA)
Procedure: as §1

[3] = molecular target: T3, antigen peptide-BSA (immunisation peptide #1 MADDYGSESTSSMEDYVNFNF-C conjugated to BSA) (human, extra C-terminal Cys conjugated to BSA); assay: ELISA; Ab 0.03125 ug/mL; repII
T3 construct: also called Positive control antigen peptide-BSA; MADDY peptide
T3 peptide: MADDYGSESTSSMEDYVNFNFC
Procedure: as §1

[4] = molecular target: T4, Peptide 1-BSA (MADDYGSEST-C conjugated to BSA) (human); assay: ELISA; Ab 0.0625 ug/mL; repII
T4 peptide: MADDYGSESTC(BSA)
Procedure: as §1

[5] = molecular target: T1, Peptide 4-BSA (SMEDYVNFNF-C conjugated …); assay: ELISA; Ab 0.0625 ug/mL; repII
Procedure: as §1

[6] = molecular target: T5, Peptide 1, non-conjugated (MADDYGSEST-C) (human); assay: ELISA; Ab 0.0625 ug/mL; repII
T5 construct: With the extra C-terminal Cys
T5 peptide: MADDYGSESTC
Procedure: as §1

[7] = molecular target: T6, Peptide 3, non-conjugated (SSMEDYVNFN-C) (human); assay: ELISA; Ab 0.0625 ug/mL; repII
T6 construct: With the extra C-terminal Cys
T6 peptide: SSMEDYVNFNC
Procedure: as §1

[8] = molecular target: T7, Peptide 4, non-conjugated (SMEDYVNFNF-C) (human); assay: ELISA; Ab 0.0625 ug/mL; repII
T7 construct: With the extra C-terminal Cys
T7 peptide: SMEDYVNFNFC
Procedure: as §1

[9] = molecular target: T8, Peptide 3-BSA (SSMEDYVNFN-C conjugated to BSA) (human); assay: ELISA; Ab 0.0625 ug/mL; repII
T8 peptide: SSMEDYVNFNC(BSA)
Procedure: as §1

[10] = molecular target: T2, Peptide 2-BSA (GSESTSSMED-C conjugated …); assay: ELISA; Ab 0.0625 ug/mL; repII
Procedure: as §1

[11] = molecular target: T3, antigen peptide-BSA (immunisation …); assay: ELISA; Ab 0.0625 ug/mL; repII
Procedure: as §1

[12] = molecular target: T9, BSA (negative control coating) (bovine, UniProt P02769 25-607); assay: ELISA; Ab 0.0625 ug/mL; repII
T9 construct: also called Negative control BSA
Procedure: as §1

[13] = molecular target: T10, Peptide 2, non-conjugated (GSESTSSMED-C) (human); assay: ELISA; Ab 0.0625 ug/mL; repII
T10 construct: With the extra C-terminal Cys
T10 peptide: GSESTSSMEDC
Procedure: as §1

[14] = molecular target: T11, biotin-peptide SMEDYVNFNF (human); assay: ELISA biotin-peptide; scFv 10 ug/mL; repI
T11 peptide: Biotin-SMEDYVNFNF
Procedure: (§2) The peptides were synthesized naked or with a N-terminal Biotin modification with a purity of >98%. All four scFvs were verified by ELISA that can be detected with anti-His antibodies. ELISA was performed for scFv-peptide binding validation. Briefly, naked peptides were coated (50 μg/mL) in 0.58M carbonate-bicarbonate buffer pH9.5, 100 μL/well, 4° C. O/N. Then after blocking (3% BSA-PBS, 300 μL/well 37° C. 1.5 h) and washing (PBS+Tween-20 0.05% v/v (0.05% PBST), wells were incubated with each purified scFv antibody at concentration of 1 μg/mL in PBS at 37° C. 1 h. After washing (0.05% PBST), wells were incubated with secondary antibodies (goat anti-His IgG-HRP) in PBS, 37° C., 30 min. After washing, and incubation with TMB substrate, reactions were stopped with 2M HCl and reading was quantified at OD450.
(§3) ELISA with biotin-conjugated peptides (5 μg/mL) was performed very similar to described above with minor modifications.
(§4) A full curve ELISA was performed for each positive scFv/biotin-peptide pair in order to confirm previous results. Tables 15-17 show ELISA results of the dose-dependent full curve for each positive peptide with scFv “CCR9_HUM”, “Comp-2” and “Comp-3”, respectively.

[15] = molecular target: T12, biotin-peptide SSMEDYVNFN (human); assay: ELISA biotin-peptide; scFv 10 ug/mL; repI
T12 peptide: Biotin-SSMEDYVNFN
Procedure: as §2, §3, §4

[16] = molecular target: T13, biotin-peptide MEDYVNFNFT (human); assay: ELISA biotin-peptide; scFv 10 ug/mL; repI
T13 peptide: Biotin-MEDYVNFNFT
Procedure: as §2, §3, §4

[17] = molecular target: T14, biotin-peptide TSSMEDYVNF (human); assay: ELISA biotin-peptide; scFv 10 ug/mL; repI
T14 peptide: Biotin-TSSMEDYVNF
Procedure: as §2, §3, §4

[18] = molecular target: T11, biotin-peptide SMEDYVNFNF; assay: ELISA biotin-peptide; scFv 0.3125 ug/mL; repII
Procedure: as §2, §3, §4

[19] = molecular target: T12, biotin-peptide SSMEDYVNFN; assay: ELISA biotin-peptide; scFv 0.3125 ug/mL; repII
Procedure: as §2, §3, §4

[20] = molecular target: T13, biotin-peptide MEDYVNFNFT; assay: ELISA biotin-peptide; scFv 0.3125 ug/mL; repII
Procedure: as §2, §3, §4

[21] = molecular target: T14, biotin-peptide TSSMEDYVNF; assay: ELISA biotin-peptide; scFv 0.3125 ug/mL; repII
Procedure: as §2, §3, §4

[22] = molecular target: T11, biotin-peptide SMEDYVNFNF; assay: ELISA biotin-peptide; scFv 5 ug/mL; repII
Procedure: as §2, §3, §4

[23] = molecular target: T12, biotin-peptide SSMEDYVNFN; assay: ELISA biotin-peptide; scFv 5 ug/mL; repII
Procedure: as §2, §3, §4

[24] = molecular target: T13, biotin-peptide MEDYVNFNFT; assay: ELISA biotin-peptide; scFv 5 ug/mL; repII
Procedure: as §2, §3, §4

[25] = molecular target: T14, biotin-peptide TSSMEDYVNF; assay: ELISA biotin-peptide; scFv 5 ug/mL; repII
Procedure: as §2, §3, §4

T9 sequence (P02769 25-607 limits assumed): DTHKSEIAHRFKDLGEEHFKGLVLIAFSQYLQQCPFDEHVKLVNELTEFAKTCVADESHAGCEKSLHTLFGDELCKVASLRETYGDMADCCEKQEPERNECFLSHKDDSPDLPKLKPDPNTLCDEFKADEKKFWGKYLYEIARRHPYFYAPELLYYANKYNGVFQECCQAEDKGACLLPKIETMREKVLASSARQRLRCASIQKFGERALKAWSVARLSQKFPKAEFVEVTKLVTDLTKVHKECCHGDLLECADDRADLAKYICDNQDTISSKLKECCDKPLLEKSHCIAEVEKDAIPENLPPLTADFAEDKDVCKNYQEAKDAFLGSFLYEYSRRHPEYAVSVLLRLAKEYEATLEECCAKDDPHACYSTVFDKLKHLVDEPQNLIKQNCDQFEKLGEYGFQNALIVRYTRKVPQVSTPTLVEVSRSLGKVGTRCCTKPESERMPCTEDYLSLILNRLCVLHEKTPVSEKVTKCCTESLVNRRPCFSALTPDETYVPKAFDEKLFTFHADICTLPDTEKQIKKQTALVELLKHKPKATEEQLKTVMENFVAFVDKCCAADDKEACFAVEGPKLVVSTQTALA

- OD450 [1]: 1.53 OD
- OD450 [2]: 0.01 OD
- OD450 [3]: 1.48 OD
- OD450 [4]: 0.01 OD
- OD450 [5]: 2.01 OD
- OD450 [6]: 0.01 OD
- OD450 [7]: 1.67 OD
- OD450 [8]: 1.19 OD
- OD450 [9]: 1.78 OD
- OD450 [10]: 0.01 OD
- OD450 [11]: 2.08 OD
- OD450 [12]: 0.01 OD
- OD450 [13]: 0.01 OD
B1: anti-CCR9 antibody clone 115 (murine, from hybridoma #115) (antibody, V domains shown)
VH: QVQLKQSGPELVKPGTSVRVSCTASGYSFTDYIIYWVKQSHGRSLEWIGYIDPNNYNTRYSQKFKGKATLTVDKSSTSAFMHLNSLTSDDSAVYYCARDVYWGQGTTLTVSS
VL: DVVMTQTPLSLTVSLGDQASISCRSSQSLVHSNGKTYLQWYLQKPGQSPKLLIYKVSNRFSGVPDRFSGSGSGTDFTLKISRVEAEDLGVYFCAQSTHVWTFGGGTKLEIKR
notes: Mouse IgG1

- OD450 [14]: 1.79 OD
- OD450 [15]: 1.9 OD
- OD450 [16]: 1.72 OD
- OD450 [17]: 1.46 OD
- OD450 [18]: 1.65 OD
- OD450 [19]: 1.73 OD
- OD450 [20]: 1.35 OD
- OD450 [21]: 0.45 OD
- OD450 [22]: 1.79 OD
- OD450 [23]: 1.82 OD
- OD450 [24]: 1.72 OD
- OD450 [25]: 1.38 OD
B2: CCR9_HUM2 scFv (humanized anti-CCR9 scFv, SEQ ID NO: 17 with C-terminal 6xHis tag) (scFv)
scFv: QVQLVQSGAEVKKPGASVKVSCTASGYSFTDYIIYWVKQAHGQSLEWMGYIDPNNYNTRYSQKFQGKVTITVDKSSTSAYMELNSLTSDDTAVYYCARDVYWGQGTTVTVSSGGGGSGGGGSGGGGSGGGGSDVVMTQTPLSLSVTPGQPASISCRSSQSLVHSNGKTYLQWYLQKPGQSPKLLIYKVSNRFSGVPDRFSGSGSGTDFTLKISRVEAEDVGVYFCAQSTHVWTFGGGTKVEIKRAHHHHHH
